This note sets out measurements from US20240116985A1 (published 2024).

Experiment [1] deals with T1, B-cat-Halo (NanoBRET construct expressed in HEK293 cells) (UniProt P35222 1-781).
T1 sequence (looked up): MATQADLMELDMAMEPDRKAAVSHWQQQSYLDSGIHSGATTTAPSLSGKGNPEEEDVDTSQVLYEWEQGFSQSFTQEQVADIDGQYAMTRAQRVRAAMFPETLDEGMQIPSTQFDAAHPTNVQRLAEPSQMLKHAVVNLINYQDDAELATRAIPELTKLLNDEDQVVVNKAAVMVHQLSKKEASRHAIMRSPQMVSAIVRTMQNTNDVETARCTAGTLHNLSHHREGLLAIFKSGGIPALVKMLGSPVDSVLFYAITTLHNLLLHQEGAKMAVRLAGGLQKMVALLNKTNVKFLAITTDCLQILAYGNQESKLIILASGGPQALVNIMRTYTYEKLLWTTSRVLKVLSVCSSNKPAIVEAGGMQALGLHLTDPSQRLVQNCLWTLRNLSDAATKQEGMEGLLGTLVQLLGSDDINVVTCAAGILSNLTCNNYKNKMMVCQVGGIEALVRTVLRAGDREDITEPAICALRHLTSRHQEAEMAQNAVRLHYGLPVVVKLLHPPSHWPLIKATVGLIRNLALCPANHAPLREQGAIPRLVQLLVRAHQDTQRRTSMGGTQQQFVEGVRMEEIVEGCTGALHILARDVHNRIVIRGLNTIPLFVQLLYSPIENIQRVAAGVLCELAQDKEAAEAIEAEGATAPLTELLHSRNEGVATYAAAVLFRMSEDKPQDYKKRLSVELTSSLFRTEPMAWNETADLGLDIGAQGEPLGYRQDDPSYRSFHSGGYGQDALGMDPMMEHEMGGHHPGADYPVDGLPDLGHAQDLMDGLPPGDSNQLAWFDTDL
Description: cell-based or functional assay.

Experiment [2] concerns the target T2, B-cat-Halo (UniProt P35222 1-781).
T2 sequence (looked up): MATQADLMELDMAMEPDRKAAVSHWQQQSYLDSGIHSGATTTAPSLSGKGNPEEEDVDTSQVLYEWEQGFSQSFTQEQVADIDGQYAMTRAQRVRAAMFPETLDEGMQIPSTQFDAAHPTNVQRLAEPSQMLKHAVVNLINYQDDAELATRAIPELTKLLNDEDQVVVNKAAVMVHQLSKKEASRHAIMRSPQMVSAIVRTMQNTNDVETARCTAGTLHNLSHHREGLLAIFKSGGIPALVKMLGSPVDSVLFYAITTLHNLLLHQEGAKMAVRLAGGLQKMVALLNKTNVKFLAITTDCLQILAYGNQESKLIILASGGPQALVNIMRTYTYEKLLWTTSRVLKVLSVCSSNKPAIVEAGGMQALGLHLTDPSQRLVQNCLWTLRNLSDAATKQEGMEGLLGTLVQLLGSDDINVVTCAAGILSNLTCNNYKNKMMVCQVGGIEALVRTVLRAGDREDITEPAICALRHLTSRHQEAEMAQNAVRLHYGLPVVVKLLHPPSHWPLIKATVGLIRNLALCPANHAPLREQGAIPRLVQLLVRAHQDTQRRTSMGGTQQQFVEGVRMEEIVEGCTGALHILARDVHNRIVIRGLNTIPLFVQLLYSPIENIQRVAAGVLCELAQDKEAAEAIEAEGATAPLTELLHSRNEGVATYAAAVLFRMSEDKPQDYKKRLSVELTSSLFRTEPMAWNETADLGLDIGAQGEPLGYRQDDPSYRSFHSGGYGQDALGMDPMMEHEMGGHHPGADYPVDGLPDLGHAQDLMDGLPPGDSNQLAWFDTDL
Put plainly: cell-based or functional assay.

The target of experiment [3] is T3, full-length beta-Catenin (Uniprot ID P35222) (Homo sapiens (Human), UniProt P35222 1-781).
T3 construct: also called bCat; B-Catenin
T3 sequence: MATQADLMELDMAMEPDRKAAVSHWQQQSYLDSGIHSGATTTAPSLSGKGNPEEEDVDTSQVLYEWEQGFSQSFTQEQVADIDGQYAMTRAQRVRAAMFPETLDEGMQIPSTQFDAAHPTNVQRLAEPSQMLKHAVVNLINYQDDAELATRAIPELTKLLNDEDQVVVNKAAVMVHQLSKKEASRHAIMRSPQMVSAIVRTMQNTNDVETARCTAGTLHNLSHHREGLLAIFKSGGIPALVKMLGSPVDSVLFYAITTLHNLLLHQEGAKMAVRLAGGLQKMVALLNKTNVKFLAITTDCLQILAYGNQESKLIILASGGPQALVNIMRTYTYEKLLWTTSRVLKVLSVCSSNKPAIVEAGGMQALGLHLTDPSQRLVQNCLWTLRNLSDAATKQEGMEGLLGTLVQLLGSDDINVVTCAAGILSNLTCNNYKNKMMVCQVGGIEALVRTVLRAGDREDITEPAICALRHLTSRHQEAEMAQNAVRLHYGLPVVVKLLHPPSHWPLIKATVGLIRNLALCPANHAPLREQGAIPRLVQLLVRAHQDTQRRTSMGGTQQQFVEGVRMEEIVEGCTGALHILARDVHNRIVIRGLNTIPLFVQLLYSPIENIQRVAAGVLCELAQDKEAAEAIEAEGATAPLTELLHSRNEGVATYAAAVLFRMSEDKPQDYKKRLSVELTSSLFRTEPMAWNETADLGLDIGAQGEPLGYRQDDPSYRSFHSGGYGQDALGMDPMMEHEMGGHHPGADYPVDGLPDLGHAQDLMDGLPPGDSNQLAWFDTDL
Description: FP competition: full-length beta-catenin 10 nM + 5FAM-TCF4(10-53) 10 nM. On the procedure:
(§1) The plate was incubated protected from light for 60 minutes at 20° C. prior to read. Reads were performed on a CLARIOstar plate reader (BMG Labtech) in duplicate, and data were fitted to a 1:1 binding model with hill slope using an in-house script. All provided concentrations are final concentrations.

Experiment [4] addresses T4, beta-catenin in TCF/LEF luciferase reporter cells (Homo sapiens (Human), UniProt P35222 1-781).
T4 sequence: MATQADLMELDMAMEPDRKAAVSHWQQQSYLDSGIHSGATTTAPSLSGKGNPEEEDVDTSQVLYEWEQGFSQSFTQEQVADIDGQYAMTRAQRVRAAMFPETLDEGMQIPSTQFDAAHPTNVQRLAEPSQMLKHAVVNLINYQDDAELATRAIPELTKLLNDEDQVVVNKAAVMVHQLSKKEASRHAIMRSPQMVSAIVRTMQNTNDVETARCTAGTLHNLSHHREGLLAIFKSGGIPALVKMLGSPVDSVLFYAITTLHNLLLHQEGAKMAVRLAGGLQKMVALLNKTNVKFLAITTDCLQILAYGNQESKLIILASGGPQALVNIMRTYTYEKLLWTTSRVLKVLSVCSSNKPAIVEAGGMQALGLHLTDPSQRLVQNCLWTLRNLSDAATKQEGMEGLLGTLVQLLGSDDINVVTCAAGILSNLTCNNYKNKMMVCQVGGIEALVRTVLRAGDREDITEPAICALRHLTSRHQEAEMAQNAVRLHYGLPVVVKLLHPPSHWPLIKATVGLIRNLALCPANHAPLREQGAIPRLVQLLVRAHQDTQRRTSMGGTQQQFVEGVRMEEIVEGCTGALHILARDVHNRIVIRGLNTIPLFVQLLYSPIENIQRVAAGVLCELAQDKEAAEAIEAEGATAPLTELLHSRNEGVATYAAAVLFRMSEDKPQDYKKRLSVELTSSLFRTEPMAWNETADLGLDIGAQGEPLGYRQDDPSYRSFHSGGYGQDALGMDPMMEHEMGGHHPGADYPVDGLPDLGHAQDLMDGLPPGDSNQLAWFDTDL
Description: cell-based or functional assay.

Experiment [5] addresses T5, full-length beta-Catenin (Uniprot ID P35222) (Homo sapiens (Human), UniProt P35222 1-781).
T5 construct: also called bCat
T5 sequence: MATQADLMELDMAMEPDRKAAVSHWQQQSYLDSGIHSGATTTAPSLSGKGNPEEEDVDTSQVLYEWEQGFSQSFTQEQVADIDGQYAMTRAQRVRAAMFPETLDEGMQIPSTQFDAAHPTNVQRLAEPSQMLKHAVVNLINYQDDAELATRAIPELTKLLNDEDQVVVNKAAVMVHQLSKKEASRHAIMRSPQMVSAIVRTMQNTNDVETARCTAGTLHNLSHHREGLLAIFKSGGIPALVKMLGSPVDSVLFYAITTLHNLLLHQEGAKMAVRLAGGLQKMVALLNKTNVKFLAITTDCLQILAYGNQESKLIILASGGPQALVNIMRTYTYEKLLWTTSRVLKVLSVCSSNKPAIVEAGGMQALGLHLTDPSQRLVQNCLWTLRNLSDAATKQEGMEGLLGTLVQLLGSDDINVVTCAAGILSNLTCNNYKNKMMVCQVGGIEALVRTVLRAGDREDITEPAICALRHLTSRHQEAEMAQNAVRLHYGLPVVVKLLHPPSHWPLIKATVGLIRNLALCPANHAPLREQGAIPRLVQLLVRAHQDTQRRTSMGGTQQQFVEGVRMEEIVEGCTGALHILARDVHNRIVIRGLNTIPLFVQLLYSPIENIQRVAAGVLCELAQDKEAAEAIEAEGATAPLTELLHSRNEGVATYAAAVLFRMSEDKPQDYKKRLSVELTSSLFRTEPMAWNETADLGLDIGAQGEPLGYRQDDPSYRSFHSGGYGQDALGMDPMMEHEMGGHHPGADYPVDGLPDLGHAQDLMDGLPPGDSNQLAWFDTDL
Description: fluorescence polarization competition; full-length beta-catenin; competitor 5FAM-TCF4(10-53) probe. On the procedure:
as §1
For orientation: In fluorescence polarisation assays a small probe gives low polarisation when free and higher when bound to something large.

Starred links: 1 amine or outer side, 2 acyl side, 3 side chain; linkers in the order of their positions; H or OH if unused. Positions of bridges follow the written chain, without caps; N, C: chain ends. Non-standard residues stand in square brackets, D forms with d. Primed or numbered codes have the meaning given here. PyrS2″ = (S)-3-amino-1-((pent-4-en-1-yloxy)carbonyl)pyrrolidine-3-carboxylic acid (stapling residue), C=CCCCOC(=O)N1CC[C@@](N[*:1])(C(=O)[*:2])C1; B5(16) = 2-amino-2-(pent-4-en-1-yl)hept-6-enoic acid = 2,2-bis(4-pentenyl)glycine (stitching residue), C=CCCCC(CCCC=C)(N[*:1])C(=O)[*:2]; B5(4) = 2,2-bis(4-pentenyl)glycine = 2-amino-2-(pent-4-en-1-yl)hept-6-enoic acid (stitching residue), C=CCCCC(CCCC=C)(N[*:1])C(=O)[*:2]; B5(20) = 2-amino-2-(pent-4-en-1-yl)hept-6-enoic acid = bis(4-pentenyl)glycine, stitching residue, C=CCCCC(CCCC=C)(N[*:1])C(=O)[*:2]; B5(6) = 2-amino-2-(pent-4-en-1-yl)hept-6-enoic acid (bis(4-pentenyl)glycine), stitching residue, C=CCCCC(CCCC=C)(N[*:1])C(=O)[*:2]; TfeGA = (S)-2-amino-3-((carboxymethyl)(2,2,2-trifluoroethyl)amino)propanoic acid, O=C([C@H](CN(CC(=O)[*:3])CC(F)(F)F)N[*:1])[*:2]; PyrS2 = (S)-3-amino-1-((pent-4-en-1-yloxy)carbonyl)pyrrolidine-3-carboxylic acid, C=CCCCOC(=O)N1CC[C@@](N[*:1])(C(=O)[*:2])C1; B5(3) = 2,2-bis(4-pentenyl)glycine (stitching residue), C=CCCCC(CCCC=C)(N[*:1])C(=O)[*:2]; Phe(2-Cl) = N[C@@H](Cc1ccccc1Cl)C(=O)O; Bta = N[C@@H](Cc1csc2ccccc12)C(=O)O; αAllylPro = C=CC[C@@]1(C(=O)O)CCCN1; tBuAla = CC(C)(C)C[C@H](N)C(=O)O; 3Thi = N[C@@H](Cc1ccsc1)C(=O)O; S8 = C=CCCCCCC[C@](C)(N)C(=O)O; Thr(ol) = C[C@@H](O)[C@H](N)CO

With Ac-[αAllylPro]DA[B5(20)]DEAAFN[S8][3Thi][Bta]Q-NH2 (staple 1-4, 4-11; also: later-eluting HPLC peak of staple isomers) [I-519], in experiment [1], the “NanoBRET Abs IC50” value amounted to 28.8 µM. On to Ac-[αAllylPro]N[tBuAla][B5(4)]DDAAFL[PyrS2][3Thi][Bta][Thr(ol)] (staple 1-4, 4-11) [I-1304], for which, in experiment [2], the “NanoBRET Abs IC50 (uM); B-cat-Halo / TCF4-Luc in HEK293 cells” value came to 33.6 µM.

Usually IC50 stands for the midpoint of a concentration-inhibition curve. With Ac-[αAllylPro]DL[B5(6)]DEAAFQ[S8]F[Bta]H-NH2 (staple 1-4, 4-11, Stapled peptide composition) [I-506], the “NanoBRET Abs IC50” value in experiment [1] came out at 8.9 µM. Moreover, in experiment [3], the half-maximal inhibitory concentration (IC50) is 25 nM. As for Ac-[αAllylPro]D[tBuAla][B5(3)]D[TfeGA]AAFL[PyrS2][3Thi][Bta]Q-NH2 (staple 1-4, 4-11) [I-849], in experiment [4], the “TCF Reporter Assay Abs IC50 (uM), peptide + ST-Protein” value came to 0.2 µM and the “TCF Reporter Assay Abs IC50 (uM), peptide only” value is 5 µM. With Ac-[αAllylPro]D[tBuAla][B5(3)]D[TfeGA]AAFT[PyrS2″][Phe(2-Cl)][Bta]Q-NH2 (staple 1-4, 4-11) [I-922], in experiment [4], the “TCF Reporter Assay Abs IC50 (uM), peptide + ST-Protein” value is 0.2 µM and the “TCF Reporter Assay Abs IC50 (uM), peptide only” value stood at 5 µM. Broadly, the EC50 is the concentration giving half of the maximal effect. Ac-[αAllylPro]DF[B5(16)]DDLLFS[PyrS2″][Phe(2-Cl)][Bta]Q-NH2 (staple 1-4, 4-11, stapled peptide) [I-1155] came in with an EC50 in experiment [5] of 60 nM. Ac-[αAllylPro]DF[B5(16)]DDALFS[PyrS2″][Phe(2-Cl)][Bta]Q-NH2 (staple 1-4, 4-11, stapled peptide) [I-1154] had an EC50 in experiment [5] of 45 nM.

Molecule Ac-[αAllylPro]DF[B5(16)]DDLAFS[PyrS2″][Phe(2-Cl)][Bta]Q-NH2 (staple 1-4, 4-11, stapled peptide) [I-1153] gave an EC50 in experiment [5] of 12 nM.
